Like-named read-outs stand apart in the source and are kept apart here.
Legend:
[1] = system: LMP2; assay: LMP2 expression in splenocytes of mice treated i.m. with Tat (Western blot); assay type: in vivo; settings: Balb/c mice, 1 μg i.m., 3 consecutive treatments
Source text: Equal amounts of proteins were loaded on a 12% SDS-PAGE gel and electroblotted onto Protran nitrocellulose membranes (Schleicher & Schuell, Keene, Hampshire, USA). The blots were probed with antibodies specific for α2, LMP2, LMP7, MECL1, and PA28α subunits (Affinity, Exeter, UK) and developed by enhanced chemiluminescence (ECL, Amersham Pharmacia Biotech, Uppsala, SW).
Animal use was according to national and institutional guidelines. Seven-to-eight week old female Balb/c mice (Nossan, Milan, Italy) were injected with native monomeric biologically active Tat protein (1 μg) resuspended in degassed sterile PBS. Control mice were injected with oxidised Tat (1 μg) or with PBS alone. Samples (100 μl) were given by intramuscular (i.m.) injections in the quadriceps muscles of the posterior legs. Each experimental group consisted of three mice, and the experiment was repeated twice. Mice were boosted at days 11 and 20 after the first injection. Seven days after the last injection, animals were anaesthetised intraperitoneally (i.p.) with 100 μl of isotonic solution containing 1 mg of Inoketan (Virbac, Milan, Italy), and 200 μg Rompun (Bayer, Milan, Italy) and sacrificed to collect spleens. Mononuclear cells from individual spleens were purified using cells strainers, resuspended in PBS containing 20 mM EDTA, and treated with a red blood cells lysis buffer for 4 minutes at room temperature. […]

[2] = system: proteasome subunits (α2, LMP2, LMP7, MECL1) in Jurkat cells; assay: Western blot of proteasome subunits in Jurkat cells expressing or treated with Tat, Tat mutants or Tat peptides; assay type: cell-based, human; settings: Jurkat cells expressing mutant
Procedure: Jurkat T cells expressing Tat or mutated Tat (referred to as Tat22, wherein a Cys at position 22 is mutated) have previously been described (1). Cells were cultured in a medium supplemented with 800 μg/ml neomycin (Sigma, St. Louise, […].).
Cells were lysed with glass beads as previously described (4). Supernatants were ultracentrifuged for 1 h at 100,000 g and loaded into an affinity column containing a matrix derivatised with the MCP21 mAb specific for the α2 subunit of the proteasome (Affinity, Exeter, UK). Proteasomes were eluted with 25 mM Tris-HCl pH 7.5 containing 2 M NaCl, and 0.5 ml fractions were collected. Homogeneity of the eluted material was confirmed by analysis of an aliquot by SDS 12% PAGE and Coomassie blue staining of the gel. Fractions containing proteasomes were combined and dialysed against 25 mM Tris-HCl pH 7.5. Protein concentration was determined using the BCA method (Pierce Chemical, Rockford, Ill.).
Equal amounts of proteins, or equal amounts of purified proteasomes, were loaded on a 12% SDS-PAGE and electro-blotted onto Protran nitrocellulose membranes (Schleicher & Schuell, Keene, Hampshire, USA). Blots were probed with Abs specific for α2, LMP2 LMP7, MECL1, and PA28α subunits (Affinity), and developed by enhanced chemi-luminescence (ECL, Amersham Pharmacia Biotech, Uppsala, SW).

[3] = system: HIV-1 LTR; settings: in contrast to wild-type Tat, cited from earlier work

| Molecule | LMP2 expression in splenocytes [1] | subunit composition of proteasomes [2] | reactivation of latent infection [3] | transactivation of the HIV-1 LTR [3] | reactivation of latent infection ([3]; listed as Tatcys22) |
| --- | --- | --- | --- | --- | --- |
| oxidised Tat: oxidised form of the HIV-1 Tat protein, used as control (protein, UniProt P04608 1-86, looked up, oxidised, oxidised form of the HIV-1 Tat protein, used as control) Protein Tat: MEPVDPRLEPWKHPGSQPKTACTNCYCKKCCFHCQVCFITKALGISYGRKKRRQRRRAHQNSQTHQASLSKQPTSQPRGDPTGPKE | no effect | – | – | – | – |
| Tat22: mutated HIV-1 Tat carrying glycine instead of cysteine 22 (SEQ ID NO 286) (protein) MEPVDPRLEPWKHPGSQPKTAGTNCYCKKCCFHCQVCFITKALGISYGRKKRRQRRRPPQGSQTHQVSLSKQPTSQSRGDPTGPKE | – | modifies the subunit composition of proteasomes | do not induce | no effect | does not induce |

Source: US20090252754A1, “Vaccines containing the hiv tat protein as an adjuvant for the enhancement of cytotoxic t-cell responses” (priority 2003, published 2009)
